From publication PMC5645412, “AUNIP/C1orf135 directs DNA double-strand breaks towards the homologous recombination repair pathway” (Nature Communications, 2017)

Experiments:
[1] = biological target: T1, MBP-tagged CtIP (UniProt Q99708 1-897); experiment: pull-down; GST or GST-AUNIP (wild type or mutant) on glutathione-Sepharose incubated with MBP-CtIP in NETN buffer, 2 h at 4 °C; five washes; CtIP detected by monoclonal anti-CtIP antibody; conditions: both partners purified
T1 construct: CtIP; also called MBP-CtIP; source: E. coli BL21, purified (Amylose resin, eluted with maltose)

[2] = biological target: T2, MBP-AUNIP (UniProt Q9H7T9 1-357); experiment: EMSA; 10 mM MgCl2; 20 nM biotin-DNA, 0-200 nM protein, 1x LightShift binding buffer with 10 mM MgCl2, 2.5% glycerol, 0.05% NP-40, 20 min, room temperature; 10% native PAGE; pH and salt not given; conditions: protein: recombinant, label: 5'-biotin on oligo 1
T2 sequence: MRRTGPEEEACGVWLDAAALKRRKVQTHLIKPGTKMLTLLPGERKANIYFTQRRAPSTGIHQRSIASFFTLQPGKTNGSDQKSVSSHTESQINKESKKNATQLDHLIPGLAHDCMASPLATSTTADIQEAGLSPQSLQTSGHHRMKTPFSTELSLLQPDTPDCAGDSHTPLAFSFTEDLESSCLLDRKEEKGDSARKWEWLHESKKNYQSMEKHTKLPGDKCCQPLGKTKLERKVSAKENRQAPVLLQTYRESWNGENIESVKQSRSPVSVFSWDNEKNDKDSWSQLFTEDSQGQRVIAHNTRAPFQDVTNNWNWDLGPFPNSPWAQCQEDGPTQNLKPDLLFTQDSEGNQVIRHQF

[3] = biological target: T3, MBP-AUNIP Δ25-70 (UniProt Q9H7T9 1-357, del25-70); experiment: EMSA; 10 mM MgCl2; up to 200 nM protein; 20 nM biotin-DNA, 0-200 nM protein, 1x LightShift binding buffer with 10 mM MgCl2, 2.5% glycerol, 0.05% NP-40, 20 min, room temperature; 10% native PAGE; pH and salt not given; conditions: protein: recombinant; label: 5'-biotin on oligo 1; fork; 31 bp duplex, two 28 nt arms (3' arm of oligo 1, 5' arm of oligo 2)
T3 sequence: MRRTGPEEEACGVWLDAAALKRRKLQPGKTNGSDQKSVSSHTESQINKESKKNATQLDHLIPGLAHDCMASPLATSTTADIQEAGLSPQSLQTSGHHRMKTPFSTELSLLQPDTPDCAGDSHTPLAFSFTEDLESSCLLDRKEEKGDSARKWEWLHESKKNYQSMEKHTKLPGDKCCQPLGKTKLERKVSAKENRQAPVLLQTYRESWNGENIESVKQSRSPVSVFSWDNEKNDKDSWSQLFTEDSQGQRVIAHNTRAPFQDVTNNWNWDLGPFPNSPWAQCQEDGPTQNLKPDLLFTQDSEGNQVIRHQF

T1 sequence (Q99708 whole entry): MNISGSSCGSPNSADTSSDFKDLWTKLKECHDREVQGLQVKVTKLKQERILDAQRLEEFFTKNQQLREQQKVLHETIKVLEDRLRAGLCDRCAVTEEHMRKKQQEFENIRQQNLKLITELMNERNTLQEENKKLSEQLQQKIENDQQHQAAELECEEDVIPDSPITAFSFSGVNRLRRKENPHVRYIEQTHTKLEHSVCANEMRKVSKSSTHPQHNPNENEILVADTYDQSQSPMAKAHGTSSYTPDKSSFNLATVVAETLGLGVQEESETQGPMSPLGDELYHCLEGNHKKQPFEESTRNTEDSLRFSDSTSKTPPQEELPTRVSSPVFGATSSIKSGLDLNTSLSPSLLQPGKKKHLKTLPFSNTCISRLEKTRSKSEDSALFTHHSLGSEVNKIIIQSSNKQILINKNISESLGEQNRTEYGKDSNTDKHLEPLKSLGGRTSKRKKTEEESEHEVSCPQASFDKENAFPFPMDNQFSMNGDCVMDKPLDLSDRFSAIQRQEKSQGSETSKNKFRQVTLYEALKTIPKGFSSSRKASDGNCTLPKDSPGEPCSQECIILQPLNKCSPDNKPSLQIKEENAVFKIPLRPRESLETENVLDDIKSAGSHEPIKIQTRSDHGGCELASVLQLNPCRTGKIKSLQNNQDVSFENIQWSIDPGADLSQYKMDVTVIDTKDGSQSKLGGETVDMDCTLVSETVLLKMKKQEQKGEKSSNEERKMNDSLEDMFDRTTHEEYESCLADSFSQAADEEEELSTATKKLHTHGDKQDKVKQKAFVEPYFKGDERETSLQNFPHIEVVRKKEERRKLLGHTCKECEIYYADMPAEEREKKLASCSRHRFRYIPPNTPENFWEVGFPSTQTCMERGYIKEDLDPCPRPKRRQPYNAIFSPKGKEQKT

B1: GST-tagged AUNIP C-terminal region (281-357) (domain or fragment, human, UniProt Q9H7T9 281-357, looked up)
chain: KDSWSQLFTEDSQGQRVIAHNTRAPFQDVTNNWNWDLGPFPNSPWAQCQEDGPTQNLKPDLLFTQDSEGNQVIRHQF
notes: source: E. coli BL21, purified on glutathione-Sepharose resin (kept on the beads)
[1]
  binding result: binds

B2: GST-tagged AUNIP (wild-type) (natural protein, human, UniProt Q9H7T9 1-357, looked up)
chain: T2 sequence
notes: AUNIP/C1orf135, human; pCold vectors may add further N-terminal vector residues; also called GST-AUNIP; recombinant GST-AUNIP; source: E. coli BL21, purified on glutathione-Sepharose resin (kept on the beads)
[1]
  binding result: binds

B3: splayed arm (dsDNA)
DNA 1: GACGCTGCCGAATTCTACCAGTGCCTTGCTAGGACATCTTTGCCCACCTGCAGGTTCAC
DNA 2: ATAGTCGGATCCTCTAGACAGCTCCATGTAGCAAGGCACTGGTAGAATTCGGCAGCGTC
[2]; fork, 31 bp duplex, two 28 nt arms (3' arm of oligo 1, 5' arm of oligo 2)
  binding result: binds
[3]
  binding result: no binding

B4: 5'-flap (dsDNA)
DNA 1: B3 DNA 1
DNA 2: B3 DNA 2
DNA 3: GTGAACCTGCAGGTGGGCAAAGATGTCC
[2]; 1:2 31 bp, 1:3 28 bp, 28 nt 5' flap of strand 2
  binding result: binds

B5: 3'-flap (dsDNA)
DNA 1: B3 DNA 1
DNA 2: B3 DNA 2
DNA 3: CATGGAGCTGTCTAGAGGATCCGACTAT
[2]; 1:2 31 bp, 2:3 28 bp, 28 nt 3' flap of strand 1
  binding result: binds
